Test results from patent publication US8828401B2, “Cytotoxic peptides and antibody drug conjugates thereof” (Pfizer Inc., priority 2011, dated 2014).

Columns and labels:
37622A1 NSCLC xenografts = test: 37622A1 NSCLC patient-derived xenografts with anti-Notch ADCs; type: in vivo, nude (Nu/Nu) female mice; conditions: 5 mg/kg Q4dx4
Experimental: (§1) Humanized anti-Notch antibodies, hu28 and hu75, and rat-human chimeric anti-Notch antibodies, ch28 and ch75, were conjugated to various linker-payload combinations and tested in 37622A1 non-small cell lung cancer (NSCLC), HCC2429 lung cancer, MDA-MB-468 breast cancer and N87 gastric cancer xenograft models. For each model described below the first dose was given on Day 0. The tumors were measured at least once a week and their volume was calculated with the formula: tumor volume (mm^3)=0.5×(tumor width^2)(tumor length). The mean tumor volumes (±S.E.M.) for each treatment group were calculated having a maximum of 10 animals and a minimum of 6 animals to be included.
The effects of anti-Notch ADCs were examined in immunodeficient mice on the in vivo growth of human tumor xenografts that were established from fragments of freshly resected 37622A1 NSCLC tumors obtained in accordance with appropriate consent procedures (Asterand). The 37622A1 NSCLC patient-derived xenografts were subcutaneously passaged in vivo as fragments from animal to animal in nude (Nu/Nu) female mice. When the tumors reached a volume of 150 to 300 mm^3, they were staged to ensure uniformity of the tumor size among various treatment groups. The 37622A1 NSCLC model was dosed intraveneously four times every four days (Q4dx4) with PBS vehicle, humanized anti-Notch ADCs, control huNeg-8.8 ADCs and cisplatin at the doses provided in Table 11.

N87 gastric xenografts = N87 gastric xenografts with anti-Notch ADCs; type: in vivo, nude (Nu/Nu) female mice; conditions: Dose 5 mg/kg Q4dx4 iv
Experimental: as §1
Similar in vivo experiments were performed with the N87 gastric cancer cell line as described above. […] When the tumors reached a volume of 250 to 450 mm^3, the tumors were staged to ensure uniformity of the tumor mass among various treatment groups. The N87 gastric model was dosed intraveneously Q4dx4 with PBS vehicle, humanized anti-Notch ADCs, control huNeg-8.8 ADCs and cisplatin at the doses provided in Tables 16 and 17.

OVCAR3 (ovarian cancer) = test: In vitro cytotoxicity assay with anti-Notch ADCs (MTS); type: cell-based; conditions: average of 2-4 repeats where ± S.E.M. is given
Experimental: (§2) The effects of anti-Notch ADCs were assessed on 1) cell lines endogenously expressing Notch protein: HCC2429 (lung cancer), OVCAR3 (ovarian cancer) and MDA-MB-468 (breast cancer), 2) cell lines engineered to over-express Notch protein: MDA-MB-468/hNotch and U2OS/hNotch, and 3) a negative control cell line (SW900) using an MTS cellular viability indicator (Promega, Madison, Wis.). These cell lines were cultured with increasing concentrations of anti-Notch ADCs comprising humanized anti-Notch antibodies, hu28 and hu75, and rat-human chimeric anti-Notch antibodies, ch28 and ch75, conjugated to various linker-payload combinations of the present invention. As a specificity control for the anti-Notch-ADCs, non-targeted control-ADCs (huNeg8.8-ADCs or ch2H6-ADCs) were also tested on the same cell lines. After four days, viability of each culture was assessed. IC50 values were calculated by logistic non-linear regression and presented as ng Ab/mL. The drug antibody ratio (DAR) is also provided.

[1] = tested on: MDA-MB-468 (breast cancer); test: as above; type: cell-based; conditions: average of 2-4 repeats where ± S.E.M. is given
Experimental: as §2

U2OS/hNotch = test: as above; type: cell-based; conditions: average of 2-4 repeats where ± S.E.M. is given
Experimental: as §2

HCC2429 (lung cancer) = test: as above; type: cell-based; conditions: average of 2-4 repeats where ± S.E.M. is given
Experimental: as §2

MDA-MB-468/hNotch = test: as above; type: cell-based; conditions: average of 2-4 repeats where ± S.E.M. is given
Experimental: as §2

## N.N.[Cl][Pt][Cl] [Cisplatin, reference compound]
37622A1 NSCLC xenografts; DAY 4
  tumor volume (mm^3 ± SEM): 226 ± 15 mm^3
37622A1 NSCLC xenografts; DAY 7
  tumor volume (mm^3 ± SEM): 280 ± 29 mm^3
37622A1 NSCLC xenografts; DAY 11
  tumor volume (mm^3 ± SEM): 301 ± 34 mm^3
37622A1 NSCLC xenografts; DAY 14
  tumor volume (mm^3 ± SEM): 345 ± 47 mm^3
37622A1 NSCLC xenografts; DAY 18
  tumor volume (mm^3 ± SEM): 309 ± 37 mm^3
37622A1 NSCLC xenografts; DAY 21
  tumor volume (mm^3 ± SEM): 373 ± 50 mm^3
37622A1 NSCLC xenografts; DAY 25
  tumor volume (mm^3 ± SEM): 401 ± 58 mm^3
37622A1 NSCLC xenografts; DAY 28
  tumor volume (mm^3 ± SEM): 446 ± 64 mm^3
37622A1 NSCLC xenografts; DAY 32
  tumor volume (mm^3 ± SEM): 482 ± 62 mm^3
37622A1 NSCLC xenografts; DAY 35
  tumor volume (mm^3 ± SEM): 587 ± 80 mm^3
37622A1 NSCLC xenografts; DAY 39
  tumor volume (mm^3 ± SEM): 591 ± 83 mm^3
37622A1 NSCLC xenografts; DAY 42
  tumor volume (mm^3 ± SEM): 612 ± 92 mm^3
37622A1 NSCLC xenografts; DAY 46
  tumor volume (mm^3 ± SEM): 723 ± 119 mm^3
37622A1 NSCLC xenografts; DAY 49
  tumor volume (mm^3 ± SEM): 853 ± 139 mm^3
37622A1 NSCLC xenografts; DAY 53
  tumor volume (mm^3 ± SEM): 970 ± 193 mm^3
37622A1 NSCLC xenografts; DAY 56
  tumor volume (mm^3 ± SEM): 1215 ± 231 mm^3
37622A1 NSCLC xenografts; DAY 60
  tumor volume (mm^3 ± SEM): 1428 ± 273 mm^3
37622A1 NSCLC xenografts; DAY −1
  tumor volume (mm^3 ± SEM): 185 ± 11 mm^3
N87 gastric xenografts; DAY 0
  tumor volume (mm^3 ± SEM): 328 ± 20 mm^3
N87 gastric xenografts; DAY 4
  tumor volume (mm^3 ± SEM): 414 ± 27 mm^3
N87 gastric xenografts; DAY 7
  tumor volume (mm^3 ± SEM): 520 ± 26 mm^3
N87 gastric xenografts; DAY 11
  tumor volume (mm^3 ± SEM): 501 ± 29 mm^3
N87 gastric xenografts; DAY 14
  tumor volume (mm^3 ± SEM): 637 ± 31 mm^3

B1: ch28-mc0131 (conjugate)
VH: EVQLVESGGGLVQPGRSLTLSCVASGFTFRDYGMTWIRQAPGKGLTWVAYISSGSNYIYYAEAVKGRFTISRDNAKNTLYLQMTSLRSEDTALYFCTRRGPFVLDAWGQGASVTVSS
VL: DIQMTQSPSFLSASVGDRVTINCKASQSINRYLHWFQQKLGEAPKLLIYNANGLQTGIPSRFSGSGSGTDFTLTISSLQSEDVATYFCLQHNTWPDTFGAGTKLELK
OVCAR3 (ovarian cancer)
  IC50 (ng Ab/mL) ± S.E.M.: 6 ± 1.0 ng Ab/mL
[1]
  IC50 (ng Ab/mL) ± S.E.M.: 35 ± 18.5 ng Ab/mL
U2OS/hNotch
  IC50 (ng Ab/mL) ± S.E.M.: 3 ± 0.5 ng Ab/mL
HCC2429 (lung cancer)
  IC50 (ng Ab/mL) ± S.E.M.: 251 ± 77.5 ng Ab/mL

B2: ch28-MalPeg6C2-8261 (conjugate)
VH: EVQLVESGGGLVQPGRSLTLSCVASGFTFRDYGMTWIRQAPGKGLTWVAYISSGSNYIYYAEAVKGRFTISRDNAKNTLYLQMTSLRSEDTALYFCTRRGPFVLDAWGQGASVTVSS
VL: DIQMTQSPSFLSASVGDRVTINCKASQSINRYLHWFQQKLGEAPKLLIYNANGLQTGIPSRFSGSGSGTDFTLTISSLQSEDVATYFCLQHNTWPDTFGAGTKLELK
[1]
  IC50 (ng Ab/mL) ± S.E.M.: 83 ± 35.5 ng Ab/mL

B3: ch28-mc8261 (conjugate)
VH: EVQLVESGGGLVQPGRSLTLSCVASGFTFRDYGMTWIRQAPGKGLTWVAYISSGSNYIYYAEAVKGRFTISRDNAKNTLYLQMTSLRSEDTALYFCTRRGPFVLDAWGQGASVTVSS
VL: DIQMTQSPSFLSASVGDRVTINCKASQSINRYLHWFQQKLGEAPKLLIYNANGLQTGIPSRFSGSGSGTDFTLTISSLQSEDVATYFCLQHNTWPDTFGAGTKLELK
[1]
  IC50 (ng Ab/mL) ± S.E.M.: 12147 ± 4806.4 ng Ab/mL

B4: ch28-MalPeg6C2-0131 (conjugate)
VH: EVQLVESGGGLVQPGRSLTLSCVASGFTFRDYGMTWIRQAPGKGLTWVAYISSGSNYIYYAEAVKGRFTISRDNAKNTLYLQMTSLRSEDTALYFCTRRGPFVLDAWGQGASVTVSS
VL: DIQMTQSPSFLSASVGDRVTINCKASQSINRYLHWFQQKLGEAPKLLIYNANGLQTGIPSRFSGSGSGTDFTLTISSLQSEDVATYFCLQHNTWPDTFGAGTKLELK
OVCAR3 (ovarian cancer)
  IC50 (ng Ab/mL) ± S.E.M.: 10 ± 2.0 ng Ab/mL
[1]
  IC50 (ng Ab/mL) ± S.E.M.: 10 ± 1.0 ng Ab/mL
U2OS/hNotch
  IC50 (ng Ab/mL) ± S.E.M.: 3 ± 0.85 ng Ab/mL

B5: ch28-mc3377 (conjugate)
VH: EVQLVESGGGLVQPGRSLTLSCVASGFTFRDYGMTWIRQAPGKGLTWVAYISSGSNYIYYAEAVKGRFTISRDNAKNTLYLQMTSLRSEDTALYFCTRRGPFVLDAWGQGASVTVSS
VL: DIQMTQSPSFLSASVGDRVTINCKASQSINRYLHWFQQKLGEAPKLLIYNANGLQTGIPSRFSGSGSGTDFTLTISSLQSEDVATYFCLQHNTWPDTFGAGTKLELK
OVCAR3 (ovarian cancer)
  IC50 (ng Ab/mL) ± S.E.M.: 14 ± 5.5 ng Ab/mL
[1]
  IC50 (ng Ab/mL) ± S.E.M.: 27 ± 11.3 ng Ab/mL
U2OS/hNotch
  IC50 (ng Ab/mL) ± S.E.M.: 3 ± 0.5 ng Ab/mL

B6: ch28-me0131 (conjugate)
VH: EVQLVESGGGLVQPGRSLTLSCVASGFTFRDYGMTWIRQAPGKGLTWVAYISSGSNYIYYAEAVKGRFTISRDNAKNTLYLQMTSLRSEDTALYFCTRRGPFVLDAWGQGASVTVSS
VL: DIQMTQSPSFLSASVGDRVTINCKASQSINRYLHWFQQKLGEAPKLLIYNANGLQTGIPSRFSGSGSGTDFTLTISSLQSEDVATYFCLQHNTWPDTFGAGTKLELK
OVCAR3 (ovarian cancer)
  IC50 (ng Ab/mL) ± S.E.M.: 8 ± 2.0 ng Ab/mL
[1]
  IC50 (ng Ab/mL) ± S.E.M.: 24 ± 14.0 ng Ab/mL
U2OS/hNotch
  IC50 (ng Ab/mL) ± S.E.M.: 3 ± 1.15 ng Ab/mL
HCC2429 (lung cancer)
  IC50 (ng Ab/mL) ± S.E.M.: 30 ng Ab/mL

B7: ch75-mc0131 (conjugate)
VH: QVKLLQSGAALVKPGASVKMSCKASGYAFTDYWVTWVKQSHGKSLEWIGEISPNSGGTNFNEKFKGKATLTVDKSTSTAYMELSRLTSEDSAIYYCTRGEIRYNWFAYWGQGTLVTVSS
VL: DIQMTQSPSSLSASVGDRVTITCKASQNVGNNIAWYQQKPGKAPKLLIYYASNRYTGVPSRFSGSGYGTDFTLTISSLQPEDFATYYCQRLYNSPFTFGGGTKVEIK
OVCAR3 (ovarian cancer)
  IC50 (ng Ab/mL) ± S.E.M.: 289 ng Ab/mL
[1]
  IC50 (ng Ab/mL) ± S.E.M.: 8202 ± 2773.0 ng Ab/mL
U2OS/hNotch
  IC50 (ng Ab/mL) ± S.E.M.: 19 ng Ab/mL
HCC2429 (lung cancer)
  IC50 (ng Ab/mL) ± S.E.M.: 671 ± 406.5 ng Ab/mL

B8: ch75-mc3377 (conjugate)
VH: QVKLLQSGAALVKPGASVKMSCKASGYAFTDYWVTWVKQSHGKSLEWIGEISPNSGGTNFNEKFKGKATLTVDKSTSTAYMELSRLTSEDSAIYYCTRGEIRYNWFAYWGQGTLVTVSS
VL: DIQMTQSPSSLSASVGDRVTITCKASQNVGNNIAWYQQKPGKAPKLLIYYASNRYTGVPSRFSGSGYGTDFTLTISSLQPEDFATYYCQRLYNSPFTFGGGTKVEIK
[1]
  IC50 (ng Ab/mL) ± S.E.M.: 560 ng Ab/mL

B9: ch75-vc0101: rat-human chimeric anti-Notch antibody ch75 conjugated to mcValCitPABC-#54 (conjugate)
VH: QVKLLQSGAALVKPGASVKMSCKASGYAFTDYWVTWVKQSHGKSLEWIGEISPNSGGTNFNEKFKGKATLTVDKSTSTAYMELSRLTSEDSAIYYCTRGEIRYNWFAYWGQGTLVTVSS
VL: DIQMTQSPSSLSASVGDRVTITCKASQNVGNNIAWYQQKPGKAPKLLIYYASNRYTGVPSRFSGSGYGTDFTLTISSLQPEDFATYYCQRLYNSPFTFGGGTKVEIK
[1]
  IC50 (ng Ab/mL) ± S.E.M.: 4064 ± 1793.9 ng Ab/mL
HCC2429 (lung cancer)
  IC50 (ng Ab/mL) ± S.E.M.: 2112 ± 826.0 ng Ab/mL
MDA-MB-468/hNotch
  IC50 (ng Ab/mL) ± S.E.M.: 24 ± 4.0 ng Ab/mL

B10: ch75-me0131 (conjugate)
VH: QVKLLQSGAALVKPGASVKMSCKASGYAFTDYWVTWVKQSHGKSLEWIGEISPNSGGTNFNEKFKGKATLTVDKSTSTAYMELSRLTSEDSAIYYCTRGEIRYNWFAYWGQGTLVTVSS
VL: DIQMTQSPSSLSASVGDRVTITCKASQNVGNNIAWYQQKPGKAPKLLIYYASNRYTGVPSRFSGSGYGTDFTLTISSLQPEDFATYYCQRLYNSPFTFGGGTKVEIK
[1]
  IC50 (ng Ab/mL) ± S.E.M.: 259 ng Ab/mL
